The values below come from the RNAGym collection of RNA variant scans (doi:10.7554/elife.80360).

B1: CPEB3 Ribozyme (parent)
chain: GGGGGCCACAGCAGAAGCGUUCACGUCGCGGCCCCUGUCAGAUUCUGGUGAAUCUGCGAAUUCUGCUGU

Variants of B1 are the subject of this series. The series can be described thus: self-cleavage, relative activity (ratio to wild type); higher = more cleavage; co-transcriptional.
In the case of U53G G58U, the self-cleavage stood at 0.939.

Turning to U53G G58C, the self-cleavage is 0.847.

On to G56A U61A, for which the self-cleavage was determined as 0.824.

Consider U53C U55A, for which the self-cleavage turned out to be 0.364.

As to U53C U55G, the self-cleavage was 0.303.

As to U53C U55C, the self-cleavage came to 0.409.

Regarding U55C C57A, the self-cleavage came out at 0.367.

Turning to U53C U62G, the self-cleavage amounted to 0.384.

U53C U62A: the self-cleavage is 0.549.

As for G56C G65U, the self-cleavage turned out to be 0.512.

For the variant U55C U64G, the self-cleavage worked out at 0.531.

Regarding U55C U64C, the self-cleavage was 0.662.

Regarding G56A U69C, the self-cleavage turned out to be 1.04.

Consider G56A U69G, for which the self-cleavage was 1.03.

As to C54A U55A, the self-cleavage stood at 0.743.

With C54A U55G, the self-cleavage was determined as 0.796.

On to C54A U55C, for which the self-cleavage worked out at 0.656.

With C54A U64A, the self-cleavage worked out at 0.543.

For the variant C54A U64C, the self-cleavage amounted to 0.483.

With C54U U67A, the self-cleavage is 0.993.

For C54U U67G, the self-cleavage was 0.987.

With C54U U67C, the self-cleavage was found to be 1.01.

For the variant U53A C54G, the self-cleavage came out at 0.586.

As for U55G U61C, the self-cleavage was 0.293.

For U55G U61G, the self-cleavage worked out at 0.547.

C54G U55C: the self-cleavage turned out to be 0.381.

Turning to G56A G65C, the self-cleavage was 0.508.

In the case of G56A G65U, the self-cleavage was found to be 0.627.

Regarding G56A G65A, the self-cleavage stood at 0.777.

Consider G56C U64A, for which the self-cleavage was determined as 0.504.

With G56C U64C, the self-cleavage is 0.637.

Regarding U53G C54G, the self-cleavage amounted to 0.673.

For U53G C54U, the self-cleavage was 0.815.

Turning to U53A G58A, the self-cleavage came out at 0.919.

Regarding U53A G58U, the self-cleavage turned out to be 0.944.

For the variant U53A G58C, the self-cleavage came to 0.917.

As to G56C G68A, the self-cleavage was 0.918.

With G56C G68U, the self-cleavage was found to be 0.971.

For the variant U53G U55A, the self-cleavage is 0.417.

As to U53G U55C, the self-cleavage came out at 0.468.

Consider C54G U69A, for which the self-cleavage stood at 1.01.

For the variant C54G U69G, the self-cleavage was 1.05.

G56C U61A: the self-cleavage was found to be 0.554.

For the variant G56C U61C, the self-cleavage was 0.434.

Take G56C U61G: the self-cleavage stood at 0.483.

Turning to U55G C57G, the self-cleavage was determined as 0.39.

Turning to U55G C57U, the self-cleavage is 0.378.

As for C54A U62C, the self-cleavage was 0.538.

Take C54A U62G: the self-cleavage was found to be 0.58.

U53G U61A: the self-cleavage was determined as 0.706.

In the case of U53G U61C, the self-cleavage was 0.473.

With U53G U61G, the self-cleavage was 0.681.

Consider C54G G58C, for which the self-cleavage amounted to 0.829.

For C54G G58U, the self-cleavage was determined as 0.93.

As for U55C U69A, the self-cleavage was determined as 0.971.

With U55C U69C, the self-cleavage worked out at 1.06.

With U55C U69G, the self-cleavage was determined as 1.01.

For U53C A60G, the self-cleavage stood at 0.711.

On to U53C A60U, for which the self-cleavage worked out at 0.397.

Take U53C A60C: the self-cleavage was 0.31.

Regarding U53C G68C, the self-cleavage was 1.02.

Consider U53C G68U, for which the self-cleavage worked out at 0.986.

Consider U53C G68A, for which the self-cleavage turned out to be 0.977.

For the variant U55G U64A, the self-cleavage was 0.371.

U55G U64C: the self-cleavage was found to be 0.411.

Take C54G G56A: the self-cleavage stood at 0.658.

With C54G G56C, the self-cleavage amounted to 0.43.

Consider U53A C63G, for which the self-cleavage stood at 0.709.

Turning to U53A C63U, the self-cleavage is 0.909.

As for C54A G68A, the self-cleavage stood at 0.955.

In the case of U55A G56U, the self-cleavage was 0.694.

As to U55A G56A, the self-cleavage came to 0.976.

Take U55A G56C: the self-cleavage was 0.636.

Turning to C54U G58C, the self-cleavage was found to be 0.97.

Take C54U G58A: the self-cleavage was found to be 0.987.

Regarding U55C C66G, the self-cleavage turned out to be 0.437.

For the variant U55C C66U, the self-cleavage was 0.816.

Regarding U55C C66A, the self-cleavage came to 0.342.

For G56C A60U, the self-cleavage came to 0.795.

As for G56C A60G, the self-cleavage came out at 0.608.

For U55C U62G, the self-cleavage amounted to 0.559.

Regarding U55C A60C, the self-cleavage is 0.306.

With G56A A60G, the self-cleavage stood at 0.856.

In the case of G56A A60U, the self-cleavage was 0.326.

On to G56A A60C, for which the self-cleavage is 0.382.

For C54A U69A, the self-cleavage is 1.01.

Take C54A U69C: the self-cleavage stood at 1.04.

Consider C54A U61A, for which the self-cleavage was found to be 0.512.

Turning to C54A U61C, the self-cleavage was 0.44.

Turning to C54A U61G, the self-cleavage amounted to 0.415.

In the case of U53A C57G, the self-cleavage is 0.345.

Regarding U53A C57U, the self-cleavage was determined as 0.376.

Turning to C54A G58U, the self-cleavage came to 0.968.

As to C54A G58C, the self-cleavage was 0.857.

Regarding G56A U64A, the self-cleavage was found to be 0.798.

Consider G56A C63U, for which the self-cleavage is 0.943.

As to G56A C63G, the self-cleavage was 0.667.

As for C54G U61C, the self-cleavage was 0.429.

Consider C54A U67A, for which the self-cleavage was 0.954.

Take U53A U67G: the self-cleavage was 0.938.

In the case of U53A U67A, the self-cleavage was 0.834.

Regarding U53C G56A, the self-cleavage is 0.539.

Take U53C G56C: the self-cleavage worked out at 0.39.

With U55A U69A, the self-cleavage was 1.02.

For the variant U55A U69C, the self-cleavage came out at 1.06.

For the variant U53G G56C, the self-cleavage was 0.331.

Take U53G G56A: the self-cleavage was 0.553.

Regarding U53G G56U, the self-cleavage was determined as 0.401.

Regarding U55A U64G, the self-cleavage was determined as 0.613.

U55A U64C: the self-cleavage amounted to 0.479.

For the variant U53G C57U, the self-cleavage is 0.311.

For the variant U53G C57A, the self-cleavage was found to be 0.327.

As to U53G A59G, the self-cleavage is 0.894.

For the variant U53G A59C, the self-cleavage was determined as 0.422.

Take G56C U67A: the self-cleavage is 0.941.

Regarding G56C U67G, the self-cleavage was 0.758.

G56C U67C: the self-cleavage was 0.878.

As for U53C U64G, the self-cleavage worked out at 0.535.

As to U53C U64C, the self-cleavage is 0.536.

With U53C U64A, the self-cleavage came out at 0.525.

Take U55C C63G: the self-cleavage is 0.532.

Regarding U55C C63A, the self-cleavage was found to be 0.464.

As to U55C C63U, the self-cleavage came out at 0.85.

On to G56C U62C, for which the self-cleavage worked out at 0.524.

For the variant G56C U62A, the self-cleavage came to 0.355.

In the case of U53A C66G, the self-cleavage was found to be 0.624.

For U53A C66U, the self-cleavage was determined as 0.911.

On to C54G C63U, for which the self-cleavage is 0.797.

As for C54G C63G, the self-cleavage was 0.514.

U53G G68A: the self-cleavage came to 0.909.

Turning to U53A G56U, the self-cleavage is 0.583.

For the variant G56A U67A, the self-cleavage is 0.927.

With G56A U67C, the self-cleavage worked out at 0.913.

As to G56A U67G, the self-cleavage stood at 0.995.

On to U55G A59C, for which the self-cleavage stood at 0.364.

In the case of U55G A59G, the self-cleavage worked out at 0.81.

Take C54A C57A: the self-cleavage is 0.378.

Regarding C54A C57U, the self-cleavage was 0.377.

For C54A C57G, the self-cleavage amounted to 0.338.

As for G56C C66U, the self-cleavage was found to be 0.748.

Consider G56C C66G, for which the self-cleavage is 0.517.

Regarding G56C C66A, the self-cleavage is 0.39.

Consider U53C G65A, for which the self-cleavage was found to be 0.472.

As for U53C G65C, the self-cleavage was 0.407.

On to U53G U62C, for which the self-cleavage was 0.619.

On to U53G U62A, for which the self-cleavage was 0.688.

On to C54U G68A, for which the self-cleavage is 1.02.

For the variant C54U G68U, the self-cleavage turned out to be 1.06.

For the variant C54U G68C, the self-cleavage was found to be 1.02.

As to U53A, the self-cleavage was 0.973.

Turning to U53G, the self-cleavage came out at 0.927.

For U53C, the self-cleavage was 0.947.

As for U53G U64G, the self-cleavage amounted to 0.6.

Regarding U53G U64C, the self-cleavage was 0.764.

C54G A59G: the self-cleavage is 0.957.

As for C54G A59C, the self-cleavage turned out to be 0.478.

Consider U53G U69G, for which the self-cleavage amounted to 1.02.

Take U53G U69C: the self-cleavage worked out at 1.04.

With U55G C63A, the self-cleavage was 0.345.

U55G C63G: the self-cleavage was determined as 0.399.

Regarding U55A G68A, the self-cleavage is 0.942.

Turning to U55A G68U, the self-cleavage was 0.992.

U55C G58A: the self-cleavage amounted to 0.91.

Regarding U55C G58C, the self-cleavage is 0.918.

As to U55C G58U, the self-cleavage is 0.968.

On to G56U A60U, for which the self-cleavage was found to be 0.293.

As to G56U A60G, the self-cleavage was found to be 0.712.
